Consider 15 sequences from the DeepSol protein solubility set.

The data set is described as follows: soluble on expression in E. coli; label from the status in PepcDB or PDB records.
Turning to “MATTVQLSDQSLRQLETLAIHTAHLIQPHGLVVVLQEPDLTISQISANCTGILGRSPEDLLGRTLGEVFDSFQIDPIQSRLTAGQISSLNPSKLWARVMGDDFVIFDGVFHRNSDGLLVCELEPAYTSDNLPFLGFYHMANAALNRLRQQANLRDFYDVIVEEVRRMTGFDRVMLYRFDENNHGDVIAEDKRDDMEPYLGLHYPESDIPQPARRLFIHNPIRVIPDVYGVAVPLTPAVNPSTNRAVDLTESILRSAYHCHLTYLKNMGVGASLTISLIKDGHLWGLIACHHQTPKVIPFELRKACEFFGRVVFSNISAQEDTETFDYRVQLAEHEAVLLDKMTTAADFVEGLTNHPDRLLGLTGSQGAAICFGEKLILVGETPDEKAVQYLLQWLENREVQDVFFTSSLSQIYPDAVNFKSVASGLLAIPIARHNFLLWFRPEVLQTVNWGGDPNHAYEATQEDGKIELHPRQSFDLWKEIVRLQSLPWQSVEIQSALALKKAIVNLILRQAEEHHHHHH”, the “soluble on expression in E. coli” value was “soluble”.

Consider “MGSDKIHHHHHHMTSYRIGIDVGGTHTDAVLLDETNQVMAETKAPTTEDVSRGIYQAMRDVIESAQVDRTRIDYAMLGTTHCTNAIVERKRLNTVGIIRIGAPATLAVKPLIGVPDDLRTLLGKHVYIVSGGHEFDGREIASLDEDHLYEIAHEIKGAVDSVAITSVFSPVSDNHEVRAAEIIREILGEAIPISLSKEIGSVGLLERENATILNASVVNVAQATAEGFVAALKEEGIEANVFFGQNDGTLMSVEYAKKYPILTIACGPTNSLRGASFLTGKENAIVVDVGGTTTDIGVLAQSFPRESSLAVEIGGARTNFRMPDLVSIGLGGGTIIRVNETDGTFTIGPESVGYRLPEKGLVFGGDTLTTTDVVVALGRANIGDRSKVAHLDKELLRRIYDRMVEMVEMAVDQMKTSSGDAPVILVGGGSILLPDQLRGASEVMKPEHLGVANAIGAAIAQVSGQIERVFSLDERGREQTLAYAKDLAREEAIKAGADPSDLTIVDVEDVPLAYLPGNATRIRVKAAGPLGSASAEQYEKGNVIP”, for which the “soluble on expression in E. coli” value is “not soluble”.

For “MSLPFTTILRMSRSRLVKQKGNKKRMTTVVSNAREIAAIDLGSNSFHMVVAKVVDQDLQLISRHKQRVRLAAGLDEQKNLDEESIQRGLECLAMFAERLQGFEPRNVRIAATHTLRQARNANLFIQRALDVLPFPIEIIPGSEEARLIYLGVAHTQPQADSMLVVDIGGGSTEMIIGKGFEAELLNSKQMGCVNFTERYFANGKLSRKNFAQAIVASEQKLESIASKYRKKGWQMAFGSSGTIKAIHEVLIGQGHEDGLITFERLSKLIEKLCEWDSIDDLQLPGLTDDRKPVFAAGVAILSAIFHGLNIKEMHFSDGALREGLLYEMEDRFKYSDIRLRTTENLAAKHLVDLEHAAKVKGHAREFLAQVANELGLPEGSELCDLLEWGALLHEVGLSINLQGFHRHSAYILRHNNMAGFNSEQQLVLSNLARFQRKSLKLNELDDFSLFKKKHIIGLIRVLRLAIVVNGQRNDDPLPPLTLSAKDDEWRLECEQPDWLENNKLLHADLQTEQEYWREVGWQLLFEGHHHHHH”, the “soluble on expression in E. coli” value is “not soluble”.

As for “MKPIQVEREIFRYEQGAIKHIEDSIVTEFPVTIKMNGQEFVTMVSTPEYIEDMVIGFLASEGIIRKYEDIDSVWVQEKEGFVHVTTTKVNPYYEQMQNKRYITSCCGMSRQGFVFANDALSAKKMKGVHVQVAADDCFRLMKEMQQSADTFHRTGGVHNAALCDVNGIILSRMDIGRHNALDKIYGYCLRNDISIKDKIIVFSGRISSEILLKVAKIGCEIILSKSAPTELALQLAEDLGITTIGFIRNHSLNVYTHPERVLNIKLEHHHHHH”, the “soluble on expression in E. coli” value is recorded as “soluble”.

On to “MKYKIIVIDVFNTLLNNKYELTEENRNALLYIQKELGIRVVLTSGRTVAALKPLAEELNLREYSGYLIPYHGGQIVNCRSGKVIASHRMATSFVEVLDARARAEGVTLLAFGKDSIFSTDPHDPLAVKESDICGQPLVSKHPRSSEVIKCSFVGEAEKIAELEVVMRRDYGDKLNIFRSSETLLECLPSE”, for which the “soluble on expression in E. coli” value is “not soluble”.

Regarding “MGSDKIHHHHHHMRATLKIAEPPVVSPSEDELRELENLYCSHGDTVHYTDKPKFFEGCEGSFVYDASQTPFLDLQMWYSAVNFGYRNERLNNAAHRQLDQLPQVASQYLHREKVELAALIARDAEQKFGHKGRVHFNVGGSQAVEDSLKLVRNFTGGKSLMFAFEGGYHGRTLGASAITSSYRYRRRYGHFSDRAQFIEFPYHFRGPKGMSKEEYGEVCVQKFARLFESEYNGVWDPKAGKSEYAAFYVEPIQGTGGYVIPPMNFFTGLKKVLDDHGILLVVDEIQMGVYRTGKLWSIEHFGVSPDVLVFGKAITNGLNPLSGIWAREEMINPTIFPPGSTHSTFASNPMGTAVALETMKMVGEGDFGASVMEKGARFLDGLKVLEKRHAIVGDVDGLGLALRMEICKEDGFTPDKATLDWMSDEGMKGDMVVDGKTYGLVLDVGGYHKNVITLAPNLMISNSEIDLALTLLDQLLTRAARR”, the “soluble on expression in E. coli” value was “not soluble”.

With “MTPRKPAVKKEVKEEEPGAPGKEGAAEGPLDPSGYNPAKNNYHPVEDACWKPGQKVPYLAVARTFEKIEEVSARLRMVETLSNLLRSVVALSPPDLLPVLYLSLNHLGPPQQGLELGVGDGVLLKAVAQATGRQLESVRAEAAEKGDVGLVAENSRSTQRLMLPPPPLTASGVFSKFRDIARLTGSASTAKKIDIIKGLFVACRHSEARFIARSLSGRLRLGLAEQSVLAALSQAVSLTPPGQEFPPAMVDAGKGKTAEARKTWLEEQGMILKQTFCEVPDLDRIIPVLLEHGLERLPEHCKLSPGIPLKPMLAHPTRGISEVLKRFEEAAFTCEYKYDGQRAQIHALEGGEVKIFSRNQEDNTGKYPDIISRIPKIKLPSVTSFILDTEAVAWDREKKQIQPFQVLTTRKRKEVDASEIQVQVCLYAFDLIYLNGESLVREPLSRRRQLLRENFVETEGEFVFATSLDTKDIEQIAEFLEQSVKDSCEGLMVKTLDVDATYEIAKRSHNWLKLKKDYLDGVGDTLDLVVIGAYLGRGKRAGRYGGFLLASYDEDSEELQAICKLGTGFSDEELEEHHQSLKALVLPSPRPYVRIDGAVIPDHWLDPSAVWEVKCADLSLSPIYPAARGLVDSDKGISLRFPRFIRVREDKQPEQATTSAQVACLYRKQSQIQNQQGEDSGSDPEDTY”, the “soluble on expression in E. coli” value is reported as “soluble”.

For the sequence “MAHHHHHHMRCFSTKSTAPTKGFHDNASGKGSNSVPVKSSALFIEALSKRRTIYSLGNKLSQSHSEVIEIIEGTIRECPSSFNIKSSTVVILFGADHQKVWDIVKAALKKVTSEEQYAQSEMKVNNSFAAGAGTILFYEDGAAIKMQQKAFPRYAANVSTFSQQSSAMAQFAVWSALAQDGIGASLQHYNELIEADLRAAFDVPEEWQLIAQMPFGSIETPADKKTRNSDKGRVVVHGAQR”, the “soluble on expression in E. coli” value is on record as “soluble”.

Consider “MSMSHINYNHLYYFWHVYKEGSVVGAAEALYLTPQTITGQIRALEERLQGKLFKRKGRGLEPSELGELVYRYADKMFTLSQEMLDIVNYRKESNLLFDVGVADALSKRLVSSVLNAAVVEGEPIHLRCFESTHEMLLEQLSQHKLDMIISDCPIDSTQQEGLFSVRIGECGVSFWCTNPPPEKPFPACLEERRLLIPGRRSMLGRKLLNWFNSQGLNVEILGEFDDAALMKAFGAMHNAIFVAPTLYAYDFYADKTVVEIGRVENVMEEYHAIFAERMIQHPAVQRICNTDYSALFSPAVR”, for which the “soluble on expression in E. coli” value is “soluble”.

Turning to “MGSDKIHHHHHHMRMLRRGSRGNDVAEVQVRLSELGYIPGPIDGIFGPKTEAAVIRFQKDRGLNPDGIVGPLTYQALFQPGPQPGYVLYTIKAGDTFYKLSLAFGVSLNEIIAANPGVDPYQLRIGQQVRIPKGGPGRRHTFSAWIPYWVQQEAMAVVRQHAELMTTLSPFWYELTPTGDLLLYPNAEDSSLIEFARSRGIELIPLVANNYDRQLISTVLNNPDLRQRNIAQIVNKVRSMNYTGIEIDYENIAAADRELFVLFLRELKAALAPYNKKLYVAIQAKTRADEPVSIGHDYGGIGAAVDVVRLMLYDYSWDNPGPIAPASWIRQVLDYAVTVIPPAKLEAGLPTYGYDWGTTRRSITYDDAIRLAQQHGAQIIQDPQRGPHFNYTDADGIAHQVWFTNALNFATFVDIVNQYNLRGISIWHPGGDDPQIYTVIQDRLE”, the “soluble on expression in E. coli” value is listed as “not soluble”.

For “MSTKEEITKEIEEQGAEVRRVKGDKNSTEEAKKEAIDKLLALKLTYKEVTGQEYAAPNARQSKPKKEEKPKQQPKQQEKKQDGKKQTLLGVGTKKDDNYSEWYSEVITKAEMIEYYDVSGCYVLRPWSFAVWESIQEWFDSGIKKLGVKNCYFPMFVSNAALEREKTHIADFAPEVAWVTRAGNSEMAEPIAIRPTSETVMYPSYKKWVQSHRDLPIKLNQWCNVVRWEFKHPTPFLRTREFLWQEGHTAFANPADAEKEVFQILDLYAGVYTDLLAIPVVKGRKSEKEKFAGGDFTTTVEAYVACNGRGIQGATSHHLGQNFSKMFDISYEDPAKEGERAFAWQNSWGLSTRTIGAMVMIHGDDKGLVLPPRVAAVQVIVVPVGFKTENKQSLFDAVDKVTKDLVADGVKAEHDLRENYNAGWKFNHWELKGVPIRFEVGPNDLAKNQVTAVIRHNGEKKQLSLEGLSKTVKSLLDEIHTAMYNKVLAQRDSHLKSTTCIEEFKKLLDEKCIILSPFCGRPDCEEEIKKASTREDGEGAQMGAKTLCIPLDQPKQELPSKCLFPSCTYNAKAFALFGRSY”, the “soluble on expression in E. coli” value was “not soluble”.

Take “MSDEGLAPGKRLSEIRQQQGLSQRRAAELSGLTHSAISTIEQDKVSPAISTLQKLLKVYGLSLSEFFSEPEKPDEPQVVINQDDLIEMGSQGVSMKLVHNGNPNRTLAMIFETYQPGTTTGERIKHQGEEIGTVLEGEIVLTINGQDYHLVAGQSYAINTGIPHSFSNTSAGICRIISAHTPTTF”: the “soluble on expression in E. coli” value is on record as “not soluble”.

With “GPGSMFYKMKLERNIKVEPHLLERTLHRHLEEYLRKAVEGTPLHLSLGNALRSGLARTNQNSSAVIIAVLDILNTSSLEGRVLDDGSVSFFVKYEGLVFKLHRGEVIDVIVSSVEREGWWGDVMGVGRMYISRGQMGNEWVYESDGMRGIWITKDGARSVKEGEIVRVRVVAETPQSEGVLAVGSMVGNYLGPL”, the “soluble on expression in E. coli” value is “not soluble”.

For “DIQFSAGLFFQYNLSENFSLRIDPTFDRKGYQYKDITFTDNSGNILGTGKLYGHLDYITIPVLFKASVGNKVKYFVNAGPSIGLLLSETFIYDNPYGNGNQKTHNTNQYKKADAGITAGLGIAIPLGNAIALSFEVRNNVGLTNINKNSNANSAIHANTTSMLVGVAYKF”, the “soluble on expression in E. coli” value is “not soluble”.

For the sequence “AAGAAPVDISTLPRVKVDLVKPPFVHAHDQVAKTGPRVVEFTMTIEEKKLVIDREGTEIHAMTFNGSVPGPLMVVHENDYVELRLINPDTNTLLHNIDFHAATGALGGGALTQVNPGEETTLRFKATKPGVFVYHCAPEGMVPWHVTSGMNGAIMVLPRDGLKDEKGQPLTYDKIYYVGEQDFYVPKDEAGNYKKYETPGEAYEDAVKAMRTLTPTHIVFNGAVGALTGDHALTAAVGERVLVVHSQANRDTRPHLEGGHGDYVWATGKFRNPPDLDQETWLIPGGTAGAAFYTFRQPGVYAYVNHNLIEAFELGAAGHFKVTGEWNDDLMTSVVKPASM”, the “soluble on expression in E. coli” value is “soluble”.
